# Measured values taken from patent US20030148958A1 (PROCTER AND GAMBLE, published 2003).
# Ends that are not written are not given here.
# T1: CRF2R
# T1 sequence (Q13324 whole entry, species assumed, looked up): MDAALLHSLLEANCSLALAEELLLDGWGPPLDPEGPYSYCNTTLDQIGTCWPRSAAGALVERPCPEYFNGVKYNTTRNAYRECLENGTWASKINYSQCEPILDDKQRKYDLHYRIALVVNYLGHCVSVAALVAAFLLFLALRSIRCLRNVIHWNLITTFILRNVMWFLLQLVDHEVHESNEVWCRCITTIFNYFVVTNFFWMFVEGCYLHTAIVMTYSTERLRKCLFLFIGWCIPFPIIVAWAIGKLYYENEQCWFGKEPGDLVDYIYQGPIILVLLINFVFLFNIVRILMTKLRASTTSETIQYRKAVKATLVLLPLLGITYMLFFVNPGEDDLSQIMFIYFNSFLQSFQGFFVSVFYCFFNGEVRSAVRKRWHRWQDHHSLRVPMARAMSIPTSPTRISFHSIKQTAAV
# How the values were obtained:
# [1] = target: CRF1R; assay: cell-based or functional assay
# [2] = target: T1, CRF2R; assay: cell-based or functional assay
# Wherever CRF1R Emax % is given: reference of the scale not given here.
# Wherever CRF2R Emax % is given: reference of the scale not given here.
Binder,CRF1R EC50 [1],CRF1R Emax % [1],CRF2R EC50 [2],CRF2R Emax % [2]
NDDPPISIDLPLLLLRNMIEMARIENEREQAGLNAKYLAEV-NH2 [SEQ ID NO 268],1000 nM,14.2%,100 nM,59%
NDDPPISIDLPTYLLRNMIEMARIENEREQAGLNAKYLAEV-NH2 [SEQ ID NO 266],1000 nM,4.45%,100 nM,19.4%
ZGPPISIDLPYQLLRKMIEIEKQEKEKQQAANNARLLAR (C-terminal amide) [SEQ ID NO 287],1000 nM,–,11.3 nM,100%
ZGPPISIDLPYQLLRKMIEIEKQEKEKQQAANNARLLAR (C-terminal amide) [SEQ ID NO 288],838 nM,–,14.7 nM,100%
NDDPPISIDLPQYLLRNMIEMARIENEREQAGLNAKYLAEV-NH2 [SEQ ID NO 265],1000 nM,9.3%,100 nM,23.4%
ZGPPISIDLPTWLLRKVIEIEKQEKEKQQAANNRLLLDTI (C-terminal amide) [SEQ ID NO 284],1000 nM,27.7%,100 nM,100%
ZGPPISIDLPQILLRKVIEIEKQEKEKQQAANNRLLLDTI (C-terminal amide) [SEQ ID NO 293],520 nM,95.3%,40.3 nM,87%
ZGPPISIDLPFQLLRKVIEIEKQEKEKQQAANNAELLAEI (not fully specified; C-terminal amide) [SEQ ID NO 272],1000 nM,51.1%,23.3 nM,100%
ZGPPISIDLPFQLLRKVIEIEKQEKEKQQAANNAHLLAHI (C-terminal amide) [SEQ ID NO 277],1000 nM,39.9%,28.2 nM,100%
ZGPPISIDLPIFLLRKVIEIEKQEKEKQQAANNARLLARI (C-terminal amide) [SEQ ID NO 281],1000 nM,12.2%,100 nM,78.8%
ZGPPISIDLPQILLRKVIEIEKQEKEKQQAANNARLLARI (C-terminal amide) [SEQ ID NO 294],1000 nM,13.6%,100 nM,100%
ZGPPISIDLPIFLLRKMIEIEKQEKEKQQAANNARLLARI (not fully specified; C-terminal amide) [SEQ ID NO 282],1000 nM,21.8%,25.8 nM,60.8%
ZGPPISIDLPFQLLRKVIEIEKQEKEKQQAANNARLLDTI (C-terminal amide) [SEQ ID NO 278],1000 nM,48.7%,19.6 nM,100%
ZGPPISIDLPFQLLRKVIEIEKQEKEKQQAANNAQLLAHI (not fully specified; C-terminal amide) [SEQ ID NO 273],1000 nM,59.3%,31.3 nM,100%
ZGPPISIDLPQILLRKMIEIEKQEKEKQQAANNARLLARI (C-terminal amide) [SEQ ID NO 285],1000 nM,11.1%,13.9 nM,97.1%
ZGPPISIDLPYQLLRKVIEIEKQEKEKQQAANNRLLLDTI (C-terminal amide) [SEQ ID NO 283],635 nM,100%,10.6 nM,72%
ZGPPISIDLPYWLLRKMIEIEKQEKEKQQAANNARLLARI (C-terminal amide) [SEQ ID NO 289],1000 nM,69.5%,12.2 nM,97.3%
ZGPPISIDLPTWLLRKMIEIEKQEKEKQQAANNARLLARI (C-terminal amide) [SEQ ID NO 292],1000 nM,7%,100 nM,86.1%
ZGPPISIDLPFQLLRKVIEIEKQEKEKQQAANNARLLARI (not fully specified; C-terminal amide) [SEQ ID NO 279],1000 nM,93%,13.1 nM,100%
ZGPPISIDLPFQLLRKVIEIEKQEKEKQQAANNAQLLAQI (not fully specified; C-terminal amide) [SEQ ID NO 276],1000 nM,75.7%,22.1 nM,100%
ZGPPISIDLPTWLLRKVIEIEKQEKEKQQAANNARLLARI (C-terminal amide) [SEQ ID NO 291],1000 nM,4.75%,100 nM,63.8%
ZGPPISIDLPIILLRKMIEIEKQEKEKQQAANNARLLARI (C-terminal amide) [SEQ ID NO 290],1000 nM,6.4%,100 nM,100%
ZGPPISIDLPFQLLRKVIEIEKQEKEKQQAANNAKLLAKI (not fully specified; C-terminal amide) [SEQ ID NO 274],508 nM,80.9%,13.8 nM,100%
ZGPPISIDLPFQLLRKVIEIEKQEKEKQQAANNANLLANI (not fully specified; C-terminal amide) [SEQ ID NO 275],1000 nM,38.3%,46.6 nM,100%
ZGPPISIDLPIFLLRKVIEIEKQEKEKQQAANNALLLATI (not fully specified; C-terminal amide) [SEQ ID NO 280],1000 nM,11.8%,100 nM,82.3%
ZGPPISIDLPYQLLRKVIEIEKQEKEKQQAANNARLLARI (C-terminal amide) [SEQ ID NO 286],1000 nM,19.2%,13.5 nM,92.5%
NDDPPISIDLPLYLLRNMIEMARIENEREQAGLNAKYLAEV-NH2 [SEQ ID NO 271],815 nM,80.7%,48.1 nM,69%
NDDPPISIDLPLQLLRNMIEMARIENEREQAGLNAKYLAEV-NH2 [SEQ ID NO 270],1000 nM,7.85%,100 nM,19.3%
NDDPPISIDLPYYLLRNMIEMARIENEREQAGLNAKYLAEV-NH2 [SEQ ID NO 267],1000 nM,22.8%,100 nM,44.2%
NDDPPISIDLPLILLRNMIEMARIENEREQAGLNAKYLAEV-NH2 [SEQ ID NO 269],1000 nM,44.3%,100 nM,77.3%
